Results published in FireProtDB (doi:10.1021/bi980431i).

B1: Lysozyme C, P61626 (parent)
chain: MKALIVLGLVLLSVTVQGKVFERCELARTLKRLGMDGYRGISLANWMCLAKWESGYNTRATNYNAGDRSTDYGIFQINSRYWCNDGKTPGAVNACHLSCSALLQDNIADAVACAKRVVRDPQGIRAWVAWRNRCQNRDVRQYVQGCGV

Variants of: B1
Settings: Homo sapiens; pH 2.69; Thermal; DSC; glycine 0.05 M; reversible: yes; structure 1LZ1; whole UniProt chain shown

Question: Which Tm does the source give for MKALIVLGLVLLSVTVQGKVFERCELARTLKRLGMDGYRGISLANWMCLAKWESGYNTRATNYNAGDRSTDFGIFQINSRYWCNDGKTPGAVNACHLSCSALLQDNIADAVACAKRVVRDPQGIRAWVAWRNRCQNRDVRQYVQGCGV here?
Answer: The Tm was 61.7 °C.

Question: And the “heat capacity change of unfolding” value?
Answer: The value was 0.89 kcal/mol/K.

Question: What about the “unfolding enthalpy (calorimetric)” value of the same variant?
Answer: Its value is 105 kcal/mol.

Question: And the “unfolding enthalpy (van 't Hoff)” value?
Answer: The value was 112 kcal/mol.

Same assay, conditions: Homo sapiens; pH 2.7; 64.9 °C; Thermal; DSC; glycine 0.05 M; reversible: yes; structure 1LZ1; whole UniProt chain shown

Question: What does the source list for MKALIVLGLVLLSVTVQGKVFERCELARTLKRLGMDGYRGISLANWMCLAKWESGYNTRATNYNAGDRSTDFGIFQINSRYWCNDGKTPGAVNACHLSCSALLQDNIADAVACAKRVVRDPQGIRAWVAWRNRCQNRDVRQYVQGCGV?
Answer: ddG of mutation (higher = less stable): 0.96 kcal/mol; heat capacity change of unfolding: 1.67 kcal/mol/K

Question: Which results are given for MKALIVLGLVLLSVTVQGKVFERCELARTLKRLGMDGYRGISLANWMCLAKWESGYNTRATNYNAGDRSTDYGIFQINSRFWCNDGKTPGAVNACHLSCSALLQDNIADAVACAKRVVRDPQGIRAWVAWRNRCQNRDVRQYVQGCGV?
Answer: ddG of mutation (higher = less stable): 0.24 kcal/mol; heat capacity change of unfolding: 1.53 kcal/mol/K

Question: Which “ddG of mutation (higher = less stable)” value does the source give for MKALIVLGLVLLSVTVQGKVFERCELARTLKRLGMDGYRGISLANWMCLAKWESGYNTRATNFNAGDRSTDYGIFQINSRYWCNDGKTPGAVNACHLSCSALLQDNIADAVACAKRVVRDPQGIRAWVAWRNRCQNRDVRQYVQGCGV here?
Answer: The value was -0.07 kcal/mol.

Question: And the “heat capacity change of unfolding” value?
Answer: Its value is 1.1 kcal/mol/K.

Same assay, conditions: Homo sapiens; pH 2.7; Thermal; DSC; glycine 0.05 M; reversible: yes; structure 1LZ1; whole UniProt chain shown

Question: For MKALIVLGLVLLSVTVQGKVFERCELARTLKRLGMDGYRGISLANWMCLAKWESGYNTRATNYNAGDRSTDFGIFQINSRYWCNDGKTPGAVNACHLSCSALLQDNIADAVACAKRVVRDPQGIRAWVAWRNRCQNRDVRQYVQGCGV, which Tm is on record?
Answer: Its Tm is 61.9 °C.

Question: What about the “change of melting temperature, mutant - wild type (higher = more stable)” value (“change of melting temperature, mutant” for short) of the same variant?
Answer: The value was -3 °C.

Question: And the “heat capacity change of unfolding” value?
Answer: Its value is 1.67 kcal/mol/K.

Question: What about the “unfolding enthalpy (calorimetric)” value of the same variant?
Answer: The value was 110 kcal/mol.

Question: What about the “unfolding enthalpy (van 't Hoff)” value of the same variant?
Answer: The value was 117 kcal/mol.

Question: Which Tm does the source give for MKALIVLGLVLLSVTVQGKVFERCELARTLKRLGMDGYRGISLANWMCLAKWESGYNTRATNYNAGDRSTDYGIFQINSRFWCNDGKTPGAVNACHLSCSALLQDNIADAVACAKRVVRDPQGIRAWVAWRNRCQNRDVRQYVQGCGV here?
Answer: Its Tm is 64.2 °C.

Question: And the “change of melting temperature, mutant” value?
Answer: The value was -0.7 °C.

Question: And the “heat capacity change of unfolding” value?
Answer: The value was 1.53 kcal/mol/K.

Question: And the “unfolding enthalpy (calorimetric)” value?
Answer: The value was 111 kcal/mol.

Question: What about the “unfolding enthalpy (van 't Hoff)” value of the same variant?
Answer: The value was 117 kcal/mol.

Question: With MKALIVLGLVLLSVTVQGKVFERCELARTLKRLGMDGYRGISLANWMCLAKWESGYNTRATNFNAGDRSTDYGIFQINSRYWCNDGKTPGAVNACHLSCSALLQDNIADAVACAKRVVRDPQGIRAWVAWRNRCQNRDVRQYVQGCGV as the variant, how does the Tm read?
Answer: Its Tm is 65.1 °C.

Question: What about the “change of melting temperature, mutant” value of the same variant?
Answer: The value was 0.2 °C.

Question: And the “heat capacity change of unfolding” value?
Answer: The value was 1.1 kcal/mol/K.

Question: And the “unfolding enthalpy (calorimetric)” value?
Answer: Its value is 112 kcal/mol.

Question: And the “unfolding enthalpy (van 't Hoff)” value?
Answer: The value was 118 kcal/mol.

Same assay, conditions: Homo sapiens; pH 2.82; Thermal; DSC; glycine 0.05 M; reversible: yes; structure 1LZ1; whole UniProt chain shown

Question: Which Tm does the source give for MKALIVLGLVLLSVTVQGKVFERCELARTLKRLGMDGYRGISLANWMCLAKWESGYNTRATNYNAGDRSTDFGIFQINSRYWCNDGKTPGAVNACHLSCSALLQDNIADAVACAKRVVRDPQGIRAWVAWRNRCQNRDVRQYVQGCGV here?
Answer: Its Tm is 64 °C.

Question: And the “heat capacity change of unfolding” value?
Answer: Its value is 1.91 kcal/mol/K.

Question: And the “unfolding enthalpy (calorimetric)” value?
Answer: The value was 108 kcal/mol.

Question: What about the “unfolding enthalpy (van 't Hoff)” value of the same variant?
Answer: The value was 114 kcal/mol.

Same assay, conditions: Homo sapiens; pH 2.99; Thermal; DSC; glycine 0.05 M; reversible: yes; structure 1LZ1; whole UniProt chain shown

Question: For MKALIVLGLVLLSVTVQGKVFERCELARTLKRLGMDGYRGISLANWMCLAKWESGYNTRATNYNAGDRSTDFGIFQINSRYWCNDGKTPGAVNACHLSCSALLQDNIADAVACAKRVVRDPQGIRAWVAWRNRCQNRDVRQYVQGCGV, which Tm is on record?
Answer: The Tm was 67 °C.

Question: And the “heat capacity change of unfolding” value?
Answer: Its value is 1.34 kcal/mol/K.

Question: And the “unfolding enthalpy (calorimetric)” value?
Answer: Its value is 114 kcal/mol.

Question: What about the “unfolding enthalpy (van 't Hoff)” value of the same variant?
Answer: The value was 120 kcal/mol.

Same assay, conditions: Homo sapiens; pH 3.13; Thermal; DSC; glycine 0.05 M; reversible: yes; structure 1LZ1; whole UniProt chain shown

Question: For MKALIVLGLVLLSVTVQGKVFERCELARTLKRLGMDGYRGISLANWMCLAKWESGYNTRATNYNAGDRSTDFGIFQINSRYWCNDGKTPGAVNACHLSCSALLQDNIADAVACAKRVVRDPQGIRAWVAWRNRCQNRDVRQYVQGCGV, which Tm is on record?
Answer: Its Tm is 69.1 °C.

Question: What about the “heat capacity change of unfolding” value of the same variant?
Answer: Its value is 1.12 kcal/mol/K.

Question: What about the “unfolding enthalpy (calorimetric)” value of the same variant?
Answer: The value was 117 kcal/mol.

Question: And the “unfolding enthalpy (van 't Hoff)” value?
Answer: Its value is 124 kcal/mol.

Question: Which Tm does the source give for MKALIVLGLVLLSVTVQGKVFERCELARTLKRLGMDGYRGISLANWMCLAKWESGYNTRATNFNAGDRSTDYGIFQINSRYWCNDGKTPGAVNACHLSCSALLQDNIADAVACAKRVVRDPQGIRAWVAWRNRCQNRDVRQYVQGCGV here?
Answer: Its Tm is 72.5 °C.

Question: What about the “heat capacity change of unfolding” value of the same variant?
Answer: Its value is 1.63 kcal/mol/K.

Question: What about the “unfolding enthalpy (calorimetric)” value of the same variant?
Answer: Its value is 121 kcal/mol.

Question: And the “unfolding enthalpy (van 't Hoff)” value?
Answer: Its value is 127 kcal/mol.

Same assay, conditions: Homo sapiens; pH 2.58; Thermal; DSC; glycine 0.05 M; reversible: yes; structure 1LZ1; whole UniProt chain shown

Question: Which Tm does the source give for MKALIVLGLVLLSVTVQGKVFERCELARTLKRLGMDGYRGISLANWMCLAKWESGYNTRATNYNAGDRSTDYGIFQINSRFWCNDGKTPGAVNACHLSCSALLQDNIADAVACAKRVVRDPQGIRAWVAWRNRCQNRDVRQYVQGCGV here?
Answer: Its Tm is 61.9 °C.

Question: And the “heat capacity change of unfolding” value?
Answer: Its value is 1.53 kcal/mol/K.

Question: What about the “unfolding enthalpy (calorimetric)” value of the same variant?
Answer: The value was 106 kcal/mol.

Question: What about the “unfolding enthalpy (van 't Hoff)” value of the same variant?
Answer: The value was 112 kcal/mol.

Same assay, conditions: Homo sapiens; pH 3; Thermal; DSC; glycine 0.05 M; reversible: yes; structure 1LZ1; whole UniProt chain shown

Question: With MKALIVLGLVLLSVTVQGKVFERCELARTLKRLGMDGYRGISLANWMCLAKWESGYNTRATNYNAGDRSTDYGIFQINSRFWCNDGKTPGAVNACHLSCSALLQDNIADAVACAKRVVRDPQGIRAWVAWRNRCQNRDVRQYVQGCGV as the variant, how does the Tm read?
Answer: Its Tm is 69.5 °C.

Question: And the “heat capacity change of unfolding” value?
Answer: Its value is 0.6 kcal/mol/K.

Question: And the “unfolding enthalpy (calorimetric)” value?
Answer: The value was 117 kcal/mol.

Question: And the “unfolding enthalpy (van 't Hoff)” value?
Answer: Its value is 122 kcal/mol.

Same assay, conditions: Homo sapiens; pH 3.17; Thermal; DSC; glycine 0.05 M; reversible: yes; structure 1LZ1; whole UniProt chain shown

Question: Which Tm does the source give for MKALIVLGLVLLSVTVQGKVFERCELARTLKRLGMDGYRGISLANWMCLAKWESGYNTRATNYNAGDRSTDYGIFQINSRFWCNDGKTPGAVNACHLSCSALLQDNIADAVACAKRVVRDPQGIRAWVAWRNRCQNRDVRQYVQGCGV here?
Answer: Its Tm is 72.7 °C.

Question: What about the “heat capacity change of unfolding” value of the same variant?
Answer: Its value is 0.67 kcal/mol/K.

Question: What about the “unfolding enthalpy (calorimetric)” value of the same variant?
Answer: The value was 123 kcal/mol.

Question: What about the “unfolding enthalpy (van 't Hoff)” value of the same variant?
Answer: The value was 129 kcal/mol.

Same assay, conditions: Homo sapiens; pH 2.48; Thermal; DSC; glycine 0.05 M; reversible: yes; structure 1LZ1; whole UniProt chain shown

Question: For MKALIVLGLVLLSVTVQGKVFERCELARTLKRLGMDGYRGISLANWMCLAKWESGYNTRATNFNAGDRSTDYGIFQINSRYWCNDGKTPGAVNACHLSCSALLQDNIADAVACAKRVVRDPQGIRAWVAWRNRCQNRDVRQYVQGCGV, which Tm is on record?
Answer: The Tm was 61.4 °C.

Question: What about the “heat capacity change of unfolding” value of the same variant?
Answer: Its value is 0.89 kcal/mol/K.

Question: What about the “unfolding enthalpy (calorimetric)” value of the same variant?
Answer: The value was 109 kcal/mol.

Question: What about the “unfolding enthalpy (van 't Hoff)” value of the same variant?
Answer: Its value is 115 kcal/mol.

Same assay, conditions: Homo sapiens; pH 2.67; Thermal; DSC; glycine 0.05 M; reversible: yes; structure 1LZ1; whole UniProt chain shown

Question: Which Tm does the source give for MKALIVLGLVLLSVTVQGKVFERCELARTLKRLGMDGYRGISLANWMCLAKWESGYNTRATNFNAGDRSTDYGIFQINSRYWCNDGKTPGAVNACHLSCSALLQDNIADAVACAKRVVRDPQGIRAWVAWRNRCQNRDVRQYVQGCGV here?
Answer: Its Tm is 64.6 °C.

Question: And the “heat capacity change of unfolding” value?
Answer: The value was 1.34 kcal/mol/K.

Question: What about the “unfolding enthalpy (calorimetric)” value of the same variant?
Answer: The value was 112 kcal/mol.

Question: And the “unfolding enthalpy (van 't Hoff)” value?
Answer: Its value is 117 kcal/mol.

Same assay, conditions: Homo sapiens; pH 2.71; Thermal; DSC; glycine 0.05 M; reversible: yes; structure 1LZ1; whole UniProt chain shown

Question: Which results are given for MKALIVLGLVLLSVTVQGKVFERCELARTLKRLGMDGYRGISLANWMCLAKWESGYNTRATNFNAGDRSTDYGIFQINSRYWCNDGKTPGAVNACHLSCSALLQDNIADAVACAKRVVRDPQGIRAWVAWRNRCQNRDVRQYVQGCGV?
Answer: Tm: 64.9 °C; heat capacity change of unfolding: 1.15 kcal/mol/K; unfolding enthalpy (calorimetric): 111 kcal/mol; unfolding enthalpy (van 't Hoff): 117 kcal/mol

Same assay, conditions: Homo sapiens; pH 2.89; Thermal; DSC; glycine 0.05 M; reversible: yes; structure 1LZ1; whole UniProt chain shown

Question: With MKALIVLGLVLLSVTVQGKVFERCELARTLKRLGMDGYRGISLANWMCLAKWESGYNTRATNFNAGDRSTDYGIFQINSRYWCNDGKTPGAVNACHLSCSALLQDNIADAVACAKRVVRDPQGIRAWVAWRNRCQNRDVRQYVQGCGV as the variant, how does the Tm read?
Answer: The Tm was 68.7 °C.

Question: What about the “heat capacity change of unfolding” value of the same variant?
Answer: The value was 0.65 kcal/mol/K.

Question: What about the “unfolding enthalpy (calorimetric)” value of the same variant?
Answer: The value was 116 kcal/mol.

Question: And the “unfolding enthalpy (van 't Hoff)” value?
Answer: Its value is 122 kcal/mol.
